# Measured values reported in US20260317430 (published 2026).
# T1: mouse FGFR2b (mouse, UniProt P21803)
# T1 chain: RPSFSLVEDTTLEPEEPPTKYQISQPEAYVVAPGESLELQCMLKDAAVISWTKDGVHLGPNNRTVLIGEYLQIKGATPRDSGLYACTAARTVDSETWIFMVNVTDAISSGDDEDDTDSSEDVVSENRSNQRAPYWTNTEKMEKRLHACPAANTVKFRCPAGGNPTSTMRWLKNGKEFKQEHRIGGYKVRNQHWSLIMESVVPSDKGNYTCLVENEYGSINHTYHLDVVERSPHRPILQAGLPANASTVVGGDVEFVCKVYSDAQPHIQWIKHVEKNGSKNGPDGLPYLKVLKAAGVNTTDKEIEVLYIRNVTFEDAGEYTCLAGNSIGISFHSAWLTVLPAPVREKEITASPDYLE
# Key:
# [1] = molecular target: human FGFR2b on KATO III cells (human, UniProt P21802); assay: FACS
# Chain of human FGFR2b on KATO III cells (P21802 22-377): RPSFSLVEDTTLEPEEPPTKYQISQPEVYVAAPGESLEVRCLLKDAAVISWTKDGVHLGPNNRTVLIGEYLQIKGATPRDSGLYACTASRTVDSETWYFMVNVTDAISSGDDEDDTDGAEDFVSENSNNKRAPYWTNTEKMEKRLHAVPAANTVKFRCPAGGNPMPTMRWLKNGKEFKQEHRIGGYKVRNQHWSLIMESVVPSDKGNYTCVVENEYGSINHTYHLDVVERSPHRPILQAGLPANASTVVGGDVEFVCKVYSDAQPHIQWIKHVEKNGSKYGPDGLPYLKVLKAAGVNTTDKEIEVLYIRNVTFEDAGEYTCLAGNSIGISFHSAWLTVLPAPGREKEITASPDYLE
# [2] = molecular target: T2, human FGFR2b extracellular domain (human, UniProt P21802); assay: ELISA
# T2 sequence (P21802 22-377): as above
# [3] = molecular target: T1, mouse FGFR2b; assay: BLI
# [4] = molecular target: T2, human FGFR2b extracellular domain; assay: BLI
EC50 [1] [µg/mL],EC50 [2] [µg/mL],Kd [3] [nM],Kd [4] [nM],Binder
0.195,0.0276,23,6.67,"2B1 (antibody, V domains shown) VH: EVQLQQSGAELVKPGASVKMSCKASGYTFASYNLHWVKQTPGQGLEWIGLIYPENGDTSYNQKFKGKATLTADKSSSTAYIQLSSLTSEDSAVYFCARGGFDYWGQGTSLTVSS VL: DIQMIQSPASLSVSVGETVTITCRASENIYSNLAWYQQKQGKSPQLLVYNAKTLADGVPSRFSGSGSGTQYSLKINSLQPEDFGSYYCQHFWSTPYTFGGGTKLEIK"
0.133,0.0273,74.9,13.3,"1B8 (antibody, V domains shown) VH: QIQLQQSGAELVKPGASVKMSCKASGYTFASYNLHWVKQTPGQGLEWIGLIYPENGDTSYNQKFKGKATLTADTSSTTAYIQLSSLTSEDSAVYFCARGGFDYWGQGTSLTVSS VL: DIKMTQSPASLSASVGETVTITCGASENIYGALNWYQRKQGKSPQLLIYGATNLADGMSSRFSGSGSGRQYSLKISSLHPDDVATYYCQNVLSTPYTFGGGTKLEIK"
0.236,0.0216,39.6,3.71,"3A3 (antibody, V domains shown) VH: QVQLQQSGAELVKPGASVKMSCKASGYTFTTYNIHWVRQTPGQGLEWIGLIYPDNGDTSYNQKFKAKATLTADKSSSTAYMHLSSLTSEDSAVYYCARGGFDYWGQGTTLTVSS VL: DIVMTQSHKFMSTSVGDRVSITCKASQDVNTDVSWYQQKPGQSPKLLIYSASYRYTGVPTRFTGSGSGTDFTFTISGVQAEDLADYYCQQHYNTPYTFGGGTRLEIK"
0.132,0.0156,21.8,4.5,"3E1 (antibody, V domains shown) VH: QVQLQQPGAEVVKPGASVKMSCKASGYTFTDYYIHWVKQTPGQGLEWIGAIYPDNGDTSYNQKFKVKATLTADKSSSTAYMQLSSLTSEDSAVYYCARAFTYWGQGTLVTVSA VL: DILITQSPASLSASVGETVTITCGASENIYGALNWYQRKQGKSPQLLIYGATNLADGMSSRFSGSGSGRQYSLKISSLHPDDVATYYCQNVLSTPYTFGGGTKLEIK"
0.2,0.0166,8.71,3.99,"3C7 (antibody, V domains shown) VH: EIQLQQSGAELVKPGASVKMSCKASGYIFRNYYIHWVKRTPGQGLEWIGAIYPDNGDTSYNQRFKVKATLTADTSSSTAYMQLSSLTSEDSAVYYCARAFTYWGQGTTLTVSS VL: DIQMIQSPASLSASVGETVTITCGASENIYGALNWYQRKQGKSPQLLIYGATNLADGMSSRFSGSGSGRQYSLKISSLHPDDVATYYCQNVLSTPYTFGGGTKLEIK"
0.259,0.0369,81.7,8.58,"3D7 (antibody, V domains shown) VH: QVQLQQSGAELVKPGASVKMSCKASGYTFSFYNMHWVKRTPGRGLEWIGLIYPDNGDTSYNQKFKGKATLTADTSSSTAYMQLSSLTSEDSAVYYCARGGLDYWGQGTSLTVSS VL: EIVLTQSPASLAVSLGQRATISCKASQSVDYDGDSYMNWYQQKPGQPPKLLIYGISNRFSGVPDRFSGSGSGTDFTLKISTIKPEDLGMYYCLQGTHQPYTFGGGTKLEIK"
0.226,0.0128,43.7,8.41,"3H6 (antibody, V domains shown) VH: QVQLQQSGAELVKPGASVKMSCKASGYTFSFYNIHWVRQTPGQGLEWIGLIYPDNGDTSYNQKFKAKATLTADKSSSTAYMQLSSLTSEDSAVYYCARGGFDYWGQGTTLTVSS VL: DIQMTQSPASLSASVGETVTITCRASENIYSYLAWYQQKQGKSPQLLVYNAKTLAEGVPSRFSGSGSGTQFSLKINSLQPEDFGSYYCQHHYGTPYTFGGGTKLEMK"
0.167,0.0154,27.6,4.51,"1D7 (antibody, V domains shown) VH: QIQLQQSGAELVKPGASVKMSCKASGYTFRYYNMHWVKRTPGQGLEWIGLIYPDNGDTSYNQKFKGKATLTADTSSSTAYMQLSSLTSEDSAVYYCARGGLDYWGQGTSLTVSS VL: DIQMTQSPSSMSASLGDRITITCQATQDIVKNLNWYQQKPGKPPSFLIYYATELAEGVPSRFSGSGSGSDYSLTISNLESEDFADYYCLQFYEFPLTFGAGTKLELK"
0.292,0.0128,10.7,2.82,"3A12 (antibody, V domains shown) VH: EVQLQQSGAELVKPGASVKMSCKASGYTFSFYNVHWVRQTPGQGLEWIGLIYPDNGDTSYNQKFKAKATLTADKSSSAAYMQLSSLTSEDSAVYYCARGGFDYWGQGTSLTVSS VL: DIVMTQSHKFMSTSVGDRVNITCKASQDVSTAVAWYQQKPGQSPKLLIYSASYRYSGVPDRFTGSGSGTDFTFTISSVQAEDLAVYYCQQHYSTPYTFGGGTKLEMK"
0.164,0.0156,26,6.13,"3F11 (antibody, V domains shown) VH: QVQLQQSGAELVKPGASVKMSCKASGYTFAPYNIHWVRQTPGQGLEWIGLIYPDNGDTSYNQKFKAKATLTADKSSSTAYMQLSSLTSEDSAVYYCARGGFDYWGQGTSLTVSS VL: DIVMTQSQKFMSTSVGDRVSVTCKASQNVGTNVAWYQQKPGQSPKALIYSASYRYSGVPDRFTGSGSGTDFTLTISNVQSEDLAEYFCQQHYSTPFTFGSGTKLEIK"
0.168,0.0166,27.3,6.28,"3B4 (antibody, V domains shown) VH: EVQLQQSGADLVKPGASVKMSCKASGYTFSYYNMHWVRRTPGQGLEWIGLIYPDNGDTSYNQKFKGKATLTADTSSSTAYMQLSSLTSEDSAVYYCARGGLDYWGQGTTLTVSS VL: DIQMIQSPASMSASVGETVTITCGASENIYGALNWYQRKQGKSPQLLIYGATNLADGMSSRFSGSGSGRQYSLKISSLHPDDVATYYCQNVLSTPYTFGGGTKLEMK"
0.159,0.00818,52.5,7.62,"3F10 (antibody, V domains shown) VH: EVQLQQSGAELVKPGASVKMSCKASGYTFSFYNIHWVRQTPGQGLEWIGLIYPDNGDTSYNQKFKAKATLTADKSSSTAYMQLSSLTSEDSAVYYCARGGFDYWGQGTTLTVSS VL: DVLMTQSPASLSASVGETVTITCGASENIYGALNWYQRKQGKSPQLLIYGATNLADGMSSRFSGSGSGRQYSLKISSLHPDDVATYYCQNVLSTPYTFGGGTKLEIK"
0.199,0.0278,7.17,3.48,"3A8 (antibody, V domains shown) VH: QVQLQQSGAELVKPGASVKMSCKASGYTFTIYNIHWVRQTPGQGLEWIGLIYPDNGDTSYNQKFKAKATLTADKSSSTAYMQLSSLTSEDSAVYYCARGGFDYWGQGTSLTVSS VL: DIVMTQSQKFMSTSVGDRVSVTCKASQNVGTNVAWYQQKPGQSPKALIYSASYRYSGVPDRFTGSGSGTDFTLTISNVQAEDLADYFCQQHYSTPYTFGGGTKLEMK"
0.136,0.0369,21.7,15,"3D6 (antibody, V domains shown) VH: QVQLQQSGAELVKPGASVKMSCKASGYTFRYYNMHWVKRTPGQGLEWIGLIYPDNGDTSYNQKFKGKATLTADTSSSTAYMQLSSLTSEDSAVYYCARGGLDYWGQGTSLTVSS VL: DIQMTQSPASLSVSVGETVTITCRASENIYSNLAWYQQKQGKSPQLLVYNAKTLADGVPSRFSGSGSGTQYSLKINSLQPEDFGSYYCQHFWSTPFTFGSGTKLELK"
0.253,0.0147,9.95,2.7,"3C9 (antibody, V domains shown) VH: EIQLQQSGAELVKPGASVKMSCKASGYIFRYYNMHWVKRTPGQGLEWIGLIYPDNGDTSYNQKFKGKATLTADTSSSTAYMQLSSLTSEDSAVYYCARGGLDYWGQGTTLTVSS VL: DIQMIQSPASLSASVGETVTITCGASENIYGALNWYQRKQGKSPQLLIYGATNLADGMSSRFSGSGSGRQYSLKISSLHPDDVATYYCQNVLSTPYTFGGGTKLEIK"
0.105,0.0159,36.1,5.1,"3F5 (antibody, V domains shown) VH: EIQLQQSGAELVKPGASVKMSCKASGYTFRYYNMHWVKRTPGQGLEWIGLIYPDNGDTSYNQKFKGKATLTADTSSSTAYMQLSSLTSEDSAVYYCARGGLDYWGQGTTLTVSS VL: DIVLTQSPASLSASVGETVTITCGASENIYGALNWYQRKQGKSPQLLIYGATNLADGMSSRFSGSGSGRQYSLKISSLHPDDVATYYCQNVLSTPYTFGGGTKLEIK"
0.376,0.0273,52.7,8.18,"3E3 (antibody, V domains shown) VH: QVQLQQPGAVLVKPGASVRMSCKASGYTFPYYNVHWVKRTPGQGLEWIGLIYPDNGDTSYNQKFTGKATLTADTSSSTAYMQLSSLTSEDSAVYYCARGGLDYWGQGTTLTVSA VL: DVQITQSPASLSASVGETVTITCGASENIYGALNWYQRKQGKSPQLLIYGATNLADGMSSRFSGSGSGRQYSLKISSLHPDDVATYYCQNVLSTPYTFGGGTKLEIK"
0.298,0.0154,40.9,4.35,"3E7 (antibody, V domains shown) VH: QVQLQQSGAELVKPGASVKMSCKASGYTFTIYNIHWVRQTPGQGLEWIGLIYPDNGDTSYNQKFKAKATLTADKSSSTAYMQLSSLTSEDSAVYYCARGGFDYWGQGTTLTVSS VL: NIVMTQSQKFMSTSVGDRVSVTCKASQNVGTNVAWYQQKPGQSPKALIYSASYRYSGVPDRFTGSGSGTDFTLTISGVQAEDLADYYCQQHYNTPYTFGGGTKLEIK"
